Laboratory results from the supplement of paper PMC10567573.

B1: FAM189A2 (parent)
chain: PRCDLVDLGEGKICFCCEEFQPAK

Variants of: B1
Assay: protein stability index of a GFP-peptide fusion (GPS, HEK-293T) (PSI 1-6); higher = more stable
Settings: c terminus: a fixed tail appended
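Note: lentivirally expressed fusions sorted by FACS into six bins by GFP to DsRed ratio, PSI derived from sequencing read proportions per bin multiplied by bin number.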

Row | Variant | protein stability index
1 | PRCDLVDLGEGKICFCCVEFQPAK [E18V] | 2.53
2 | PRCDLVDLGEGKICFCCREFQPAK [E18R] | 2.28
3 | PRCDLVDLGEGKICFCCFEFQPAK [E18F] | 2.29
4 | PRCDLVDLGEGKICFCCKEFQPAK [E18K] | 2.77
5 | PRCDLVDLGEGKICFCCAEFQPAK [E18A] | 3.34
6 | PRCDLVDLGEGKICFCCTEFQPAK [E18T] | 2.45
7 | PRCDLVDLGEGKICFCCLEFQPAK [E18L] | 1.71
8 | PRCDLVDLGEGKICFCCGEFQPAK [E18G] | 2.64
9 | PRCDLVDLGEGKICFCCSEFQPAK [E18S] | 2.55
10 | PRCDLVDLGEGKICFCCIEFQPAK [E18I] | 2.63
11 | PRCDLVDLGEGKICFCCEEFQPPK [A23P] | 2.44
12 | PRCDLVDLGEGKICFCCEEFQPRK [A23R] | 2.24
13 | PRCDLVDLGEGKICFCCEEFQPLK [A23L] | 3.1
14 | PRCDLVDLGEGKICFCCEEFQPSK [A23S] | 2.66
15 | PRCDLVDLGEGKICFCCEEFQPTK [A23T] | 2.79
16 | PRCDLVDLGEGKICFCCEEFQPNK [A23N] | 3.15
17 | PRCDLVDLGEGKICFCCEEFQPWK [A23W] | 3.56
18 | PRCDLVDLGEGKICFCCEEFQPVK [A23V] | 3.29
19 | PRCDLVDLGEGKICFCCEEFQPCK [A23C] | 3.98
20 | PRCDLVDLGEGKICFCCEEFQPQK [A23Q] | 3.5
21 | PRCDLVDLGEGKICFCCEEFQPGK [A23G] | 2.72
22 | PRCDLVDLGEGKICFCCEEFQPHK [A23H] | 3.07
23 | PRCDLVDLGEGKICFCCEEFQPFK [A23F] | 2.85
24 | PRCDLVDLGEGKICFCCEEFQPIK [A23I] | 2.65

Row | Variant | protein stability index
25 | PRCDLVDLGEGKICFCCEEFQPEK [A23E] | 4.35
26 | PRCDLVDLGEGKICFCCEEFQPMK [A23M] | 1.96
27 | PRCDLVDLGEGKICFCCEEFQPKK [A23K] | 3.36
28 | PRCDLVDLGEGKICFCCEEFQPYK [A23Y] | 2.28
29 | PRCDLVDLGEGKICFCCEEFQPDK [A23D] | 3.12
30 | PRCDLVDLGEGKIWFCCEEFQPAK [C14W] | 2.51
31 | PRCDLVDLGEGKIMFCCEEFQPAK [C14M] | 2.87
32 | PRCDLVDLGEGKIPFCCEEFQPAK [C14P] | 3.94
33 | PRCDLVDLGEGKIRFCCEEFQPAK [C14R] | 3.51
34 | PRCDLVDLGEGKITFCCEEFQPAK [C14T] | 3.47
35 | PRCDLVDLGEGKINFCCEEFQPAK [C14N] | 4.56
36 | PRCDLVDLGEGKIYFCCEEFQPAK [C14Y] | 2.46
37 | PRCDLVDLGEGKISFCCEEFQPAK [C14S] | 3.3
38 | PRCDLVDLGEGKIQFCCEEFQPAK [C14Q] | 3.79
39 | PRCDLVDLGEGKIVFCCEEFQPAK [C14V] | 3.06
40 | PRCDLVDLGEGKICFCCEEHQPAK [F20H] | 4.34
41 | PRCDLVDLGEGKICFCCEETQPAK [F20T] | 3.97
42 | PRCDLVDLGEGKICFCCEEEQPAK [F20E] | 4.91
43 | PRCDLVDLGEGKICFCCEEIQPAK [F20I] | 3.6
44 | PRCDLVDLGEGKICFCCEERQPAK [F20R] | 4.13
45 | PRCDLVDLGEGKICFCCEEGQPAK [F20G] | 3.59
46 | PRCDLVDLGEGKICFCCEEAQPAK [F20A] | 3.32
47 | PRCDLVDLGEGKICFCCEEWQPAK [F20W] | 2.4
48 | PRCDLVDLGEGKICFCCEEYQPAK [F20Y] | 3.1

Row | Variant | protein stability index
49 | PRCDLVDLGEGKICFCCEEMQPAK [F20M] | 3.16
50 | PRCDLVDLGEGKICFCCEEVQPAK [F20V] | 3.75
51 | PRCDLVDLGEGKICFCCEECQPAK [F20C] | 3.15
52 | PRCDLVDLGEGKICFCCEEKQPAK [F20K] | 3.89
53 | PRCDLVDLGEGKICFCCEENQPAK [F20N] | 3.86
54 | PRCDLVDLGEGKICFCCEEDQPAK [F20D] | 4.05
55 | PRCDLVDLGEGKICFCCEEPQPAK [F20P] | 4
56 | PRCDLVDLGEGKICFCCEELQPAK [F20L] | 2.42
57 | PRCDLVDLGEGKICFCCEESQPAK [F20S] | 3.89
58 | PRCDLVDLGEGKICFCCEEQQPAK [F20Q] | 2.59
59 | PRCDLVDLGEGKICFCMEEFQPAK [C17M] | 2.66
60 | PRCDLVDLGEGKICFCLEEFQPAK [C17L] | 2.15
61 | PRCDLVDLGEGKICFCYEEFQPAK [C17Y] | 2.66
62 | PRCDLVDLGEGKICFCTEEFQPAK [C17T] | 4.05
63 | PRCDLVDLGEGKICFCKEEFQPAK [C17K] | 3.64
64 | PRCDLVDLGEGKICFCIEEFQPAK [C17I] | 2.05
65 | PRCDLVDLGEGKICFCAEEFQPAK [C17A] | 3.34
66 | PRCDLVDLGEGKICFCREEFQPAK [C17R] | 3.28
67 | PRCDLVDLGEGKICFCHEEFQPAK [C17H] | 3.11
68 | PRCDLVDLGEGKICFCPEEFQPAK [C17P] | 3.27
69 | PRCDLVDLGEGKICFCWEEFQPAK [C17W] | 2.51
70 | PRCDLVDLGEGKICFCEEEFQPAK [C17E] | 4.67
71 | PRCDLVDLGEGKICFCNEEFQPAK [C17N] | 3.96
72 | PRCDLVDLGEGKICFCGEEFQPAK [C17G] | 3.92

Row | Variant | protein stability index
73 | PRCDLVDLGEGKICFCFEEFQPAK [C17F] | 2.37
74 | PRCDLVDLGEGKICFCDEEFQPAK [C17D] | 4.29
75 | PRCDLVDLGEGKICFCQEEFQPAK [C17Q] | 3.12
76 | PRCDLVDLGEGKICFCSEEFQPAK [C17S] | 3.5
77 | PRCDLVDLGEGKICFCCELFQPAK [E19L] | 2
78 | PRCDLVDLGEGKICFCCEFFQPAK [E19F] | 1.78
79 | PRCDLVDLGEGKICFCCEQFQPAK [E19Q] | 3.05
80 | PRCDLVDLGEGKICFCCEWFQPAK [E19W] | 2.25
81 | PRCDLVDLGEGKICFCCEYFQPAK [E19Y] | 2.03
82 | PRCDLVDLGEGKICFCCERFQPAK [E19R] | 2.21
83 | PRCDLVDLGEGKICFCCEHFQPAK [E19H] | 2.94
84 | PRCDLVDLGEGKICFCCEKFQPAK [E19K] | 2.09
85 | PRCDLVDLGEGKICFCCETFQPAK [E19T] | 3.13
86 | PRCDLVDLGEGKICFCCEGFQPAK [E19G] | 2.71
87 | PRCDLVDLGEGKICFCCEPFQPAK [E19P] | 3.04
88 | PRCDLVDLGEGKICFCCEIFQPAK [E19I] | 1.55
89 | PRCDLVDLGEGKICFCCECFQPAK [E19C] | 3.96
90 | PRCDLVDLGEGKICFCCENFQPAK [E19N] | 3.21
91 | PRCDLVDLGEGKICFCCEAFQPAK [E19A] | 2.51
92 | PRCDLVDLGEGKICFCCEDFQPAK [E19D] | 2.97
93 | PRCDLVDLGEGKICFCCEVFQPAK [E19V] | 1.65
94 | PRCDLVDLGEGKICFCCESFQPAK [E19S] | 2.26
